Assay results: patent CN113501872A (INST PATHOGEN BIOLOGY CAMS, dated 2021)

Molecular target: SARS-CoV-2刺突蛋白RBD区重组蛋白 (SARS-CoV-2, UniProt P0DTC2 319-541)
Experiment: indirect ELISA, RBD protein coated, Fab supernatant

B1: 人源抗SARS-CoV-2病毒Fab抗体SK1 (Fab, V domains shown)
VH: EVQLVESGGGLVQPGRSLRLSCAASGFIFDDYAMHWVRQAPGKGLEWVSGISWNSGTIGYADSVKGRFIISRDNAKNSLYLQLNRLGVEDTALYYCVKDIYYRDRNLGFAFDIWGQGTMVTVSS
VL: DIQLTQSPSSLSASIGDTVTITCRASQSIDNYLHWYQKKPGIAPKLLISATSTLENGVPSRFSGSRSGTDFTLTISSLQIEDFATYYCQQGHSVPLTFGGGTKLEVR
notes: also called SK1 Fab
B1: binds.
